Laboratory results from patent US20230399641A1.
Read-outs that look alike come from different tables or passages of the source.

Columns and labels:
No hACE2 [1] = biological target: No hACE2
No hACE2 [2] = biological target: No hACE2; remark: listed apart in the source
No hACE2 [3] = biological target: No hACE2; remark: listed apart in the source

## receptor binding domain (RBD) of HCoV-NL63 spike (residues 481-616) (from UniProt Q6Q1S2 481-616) (ligand)
No hACE2 [1]
  % of cells in the PE-positive (RBD-bound) gate: 0.37%

## receptor binding domain (RBD) of wildtype SARS-CoV-2 spike (residues 319-541) (from UniProt P0DTC2 319-541) (ligand)
No hACE2 [2]
  % of cells in the PE-positive (RBD-bound) gate: 0.17%

## receptor binding domain (RBD) of SARS-CoV spike (residues 306-527) (from UniProt P59594 306-527) (ligand)
No hACE2 [3]
  % of cells in the PE-positive (RBD-bound) gate: 0.24%
